Each block holds one molecule with its values, some of them ahead of it.
Tests used:
[1] = biological target: human EphB2 full-length Q472A/Y473A/E480A/Y481A (human) (UniProt P29323)
[2] = biological target: human EphB2 full-length Y481E (human) (UniProt P29323)
[3] = biological target: human EphB2 full-length N482Q (human) (UniProt P29323)
[4] = biological target: the molecule itself; experiment: crystal structure; unliganded EphB2-ECD at 10 mg/mL in HBS, hanging drop at room temperature, 1.1 M Na Succinate, 0.1 M Na Acetate pH 4.8, 5% MPD, 3% 1,6-Hexanediol; 3.1 Å; head-to-tail contact between neighbouring molecules in the crystal

Molecule: human EphB2 full-length Q472A/Y473A/E480A/Y481A (from UniProt P29323 19-1055) (receptor)
EphB2 phosphorylation in HEK293 cells after ephrin stimulation (anti-phosphotyrosine IP, anti-EphB2 blot), band intensity compared with the wild-type receptor (% higher than wild type) [1]: 46

B1: mouse EphB2 extracellular domain (ECD) (residues 19-543) (domain or fragment, UniProt P54763 19-543, looked up)
chain: VEETLMDSTTATAELGWMVHPPSGWEEVSGYDENMNTIRTYQVCNVFESSQNNWLRTKFIRRRGAHRIHVEMKFSVRDCSSIPSVPGSCKETFNLYYYEADFDLATKTFPNWMENPWVKVDTIAADESFSQVDLGGRVMKINTEVRSFGPVSRNGFYLAFQDYGGCMSLIAVRVFYRKCPRIIQNGAIFQETLSGAESTSLVAARGSCIANAEEVDVPIKLYCNGDGEWLVPIGRCMCKAGFEAVENGTVCRGCPSGTFKANQGDEACTHCPINSRTTSEGATNCVCRNGYYRADLDPLDMPCTTIPSAPQAVISSVNETSLMLEWTPPRDSGGREDLVYNIICKSCGSGRGACTRCGDNVQYAPRQLGLTEPRIYISDLLAHTQYTFEIQAVNGVTDQSPFSPQFASVNITTNQAAPSAVSIMHQVSRTVDSITLSWSQPDQPNGVILDYELQYYEKELSEYNATAIKSPTNTVTVQGLKAGAIYVFQVRARTVAGYGRYSGKMYFQTMTEAEYQTSIKEKLPL
modifications: glycosylated at N265, N336, N428 and N482
notes: EphB2 (ephrin type-B receptor 2), mouse, extracellular domain (LBD, CRD, FN1, FN2), residues 19-543; also called EphB2-ECD; EphB2 ECD; not shown: Fc (human), C-terminal, cleaved
binding result [4]: binds

Results, then the molecule that gave them:

EphB2 kinase domain phosphorylation in HEK293 cells (anti-phosphotyrosine IP, anti-EphB2 blot), compared with the wild-type receptor (% lower than wild type) [2]: 56
Molecule: human EphB2 full-length Y481E (from UniProt P29323 19-1055) (receptor)

EphB2 phosphorylation in HEK293 cells after ephrin stimulation (anti-phosphotyrosine IP, anti-EphB2 blot), band intensity compared with the wild-type receptor (% higher than wild type) [3]: 40
Molecule: human EphB2 full-length N482Q (from UniProt P29323 19-1055) (receptor)

Source: paper PMC8508685, “The Ephb2 Receptor Uses Homotypic, Head-to-Tail Interactions within Its Ectodomain as an Autoinhibitory Control Mechanism” (International Journal of Molecular Sciences, 2021)
